Test results as given in US20220112288A1 (published 2022).

B1: 75110_08H11A (antibody, V domains shown)
VH: EVQLVESGGGLVQPGGSLRLSCAASGFTFSSYDMHWVRQATGKGLEWVSTIGTAGDTYYPGSVKGRFTISRENAKNSLYLQMNSLRAGDTAVYYCARGGYSYYGMDVWGQGTTVTVSS
VL: EIVLTQSPGTLSLSPGERATLSCGASQSVSSTYLAWYQQKPGQAPRLLIYGASSRATGIPDRFSGSGSGTDFTLTISRLEPEDFAVYYCQQFGSSPFTFGPGTKVDIK
notes: Tested as non-clonal hybridoma supernatant from AlivaMab Mouse Kappa mice, detected with anti-mouse Fc and anti-human Kappa
B2: 75110_10N21A (antibody, V domains shown)
VH: EVQLVESGGGLVQPGGSLRLSCAASGFTFSSYDMHWVRQVTGKGLEWVSTIGTAGDTYYPGSVKGRFTISRENAKNSLYLQMNSLRAGDTAVYYCARGGYYYYGMDVWGQGTTVTVSS
VL: EIVLTQSPGTLSLSPGERATLSCRASQSFISSYLAWYQQKPGQAPRLLIYGASSRATGIPDRFSGSGSGTDFTLTISRLDPEDFAVYYCQQSGNSPFTFGPGTKVDVK
notes: as for B1
B3: 75110_14H13A (antibody, V domains shown)
VH: EVQLVESGGGLVQPGGSLRLSCAASGFTFSNYDMHWVRQATGKGLEWVSTIGTAGDTYYPGSVKGRFTISRKNAKNSLYLQMISLRAGDTAVYYCARGGDYYYGMDVWGQGTTVTVSS
VL: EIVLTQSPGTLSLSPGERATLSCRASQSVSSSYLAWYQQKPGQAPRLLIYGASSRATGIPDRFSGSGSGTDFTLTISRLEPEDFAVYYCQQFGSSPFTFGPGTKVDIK
notes: as for B1
B4: 75110_04P06A (antibody, V domains shown)
VH: EVQLVESGGGLVQPGGSLRLSCAASGFTFSNYDMHWVRQATGKGLEWVSTIGTAGDTYYPGSVKGRFTISRENAKNSLYLQMNSLRAGDTAVYYCARGGDYYYGMDVWGQGTTVTVSS
VL: EIVLTQSPDTLSLSPGERATLSCRASQSLSSVYLAWYQQKPGQAPRLLIYGASSRATGIPDRFSGSGSGTDFTLTINRLEPEDFVVYYCQQYGSSPFTFGPGTKVDIK
notes: Tested as antibody purified from AlivaMab Mouse hybridoma supernatant (captured by anti-mouse IgG Fc)
B5: 75110_01K10A (antibody, V domains shown)
VH: EVQLVESGGALVQPGGSLRLSCAASGFTFRNYDMHWVRQATGKGLEWVSTIGTAGDTYYPGSVKGRFTISRENAKNSLYLQMNSLRAGDTAVYYCARGGDYYYGMDVWGQGTTVTVSS
VL: EIVLTQSPDTLSLSPGERATLSCRASQSLSSVYLAWYQQKPGQAPRLLIYGASSRATGIPDRFSGTGSGTDFTLTISRLEPEDFAVYYCQQYGSSPFTFGPGTKVDIK
notes: as for B4
B6: 75110_08H06A (antibody, V domains shown)
VH: EVQLVESGGGLVQPGGSLRLSCAASGFTFSNYDMHWVRQATGKGLEWVSTIGTAGDTYYPGSVKGRFTISRENAKNSLYLQMNSLRAGDTAVYYCARGGYDYYGMDVWGQGTTVTVSS
VL: EIVLTQSPGTLSLSPGERATLSCRASQSITSIYLAWYRQKPGQAPRLLIYGASSRATGIPDRFSGSGSGTDFTLTISRLEPEDFAVYYCQQYGSSPFTFGPGTKVDIK
notes: as for B1
B7: 75110_05F19A (antibody, V domains shown)
VH: EVQLVESGGGLVQPGGSLRLSCAASGFTFSNYDVHWVRQPTGKGLEWVSTIGTAGDTYYPGSVKGRFTISRENAKNSLYLQMNSLRAGDTAVYYCARGGYDYYGLDVWGQGTTVTVSS
VL: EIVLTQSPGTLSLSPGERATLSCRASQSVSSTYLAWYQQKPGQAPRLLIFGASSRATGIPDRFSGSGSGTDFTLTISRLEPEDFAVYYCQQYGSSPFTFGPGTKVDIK
notes: as for B4
B8: 75110_02I18A (antibody, V domains shown)
VH: EVQVVESGGGLVQPGGSLRLSCAASGFTFSSYDMHWVRQATGKGLEWVSTIGTAGDTYYPGSVKGRFTISRENAKNSLYLQMNSLRAGDTAVYYCARGGYYYYGMDVWGQGTTVTVSS
VL: EIVLTQSPGTLSLSPGERATLSCRASQSVSSSYLAWYQQKPGQSPRLLIHGASSRATGIPDRVSGSGSGTDFTLTISRLEPEDFAVYYCQQYGSSPFTFGPGTKVDIK
notes: as for B4
B9: 75110_13C07A (antibody, V domains shown)
VH: EVQLVESGGVLVQPGGSLRLSCAASGFTFSNYDMHWVRQATGKGLEWVSTIGTAGDTYYPGSVKGRFTLSRENAKNSLYLQMHSLRAGDTAVYYCARGAYGYYGMDVWGQGTTVTVSS
VL: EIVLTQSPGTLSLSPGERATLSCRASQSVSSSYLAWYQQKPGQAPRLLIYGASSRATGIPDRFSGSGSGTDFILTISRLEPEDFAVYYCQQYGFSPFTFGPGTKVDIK
notes: as for B1
B10: 75110_05G15A (antibody, V domains shown)
VH: QVQLQESGPGLVKPSQTLSLTCTVSGGSISSGGYFWSWIRQHPGKGLEWIGCIYYSGSTYYIPSLKSRVTISVDTSKNQFSLKLRSVTAADTAVYYCARDGYDYWYFDLWGRGTLVTVSS
VL: not shown
B11: 75110_03I23A (antibody, V domains shown)
VH: QVQLQESGPGLVKPSETLSLTCTASGGSITSYYWNWIRQPAGKGLEWIGRIYTSGSTNYNPSLKSRVTMSVDTSKNQFSLKLSSVTAADTAVYYCARDPGYSDAFNIWGQGTMVTVSS
VL: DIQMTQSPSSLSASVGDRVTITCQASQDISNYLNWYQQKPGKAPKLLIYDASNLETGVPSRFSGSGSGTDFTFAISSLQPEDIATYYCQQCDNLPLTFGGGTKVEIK
notes: as for B4
B12: 75110_01C18A (antibody, V domains shown)
VH: EVQLVESGGGLIQPGGSLRLSCAASGFTVSSNYMNWVRQAPGKGLEWVSVIYAGDNTYSADSVKGRFTISRDNSNNTLCLQMNSLRAEDTAVYYCAREGGTTGAFDIWGQGTMVTVSS
VL: DIQMTQSPSSVSASVGDRVTITCRASQGINSWLAWYQQKPGKAPKLLIYAASSLQSGVPSRFSGSGSGTDFTLTISSLQPEDFATYYCQQGNSFPYTFGQGTKLEIK
notes: as for B4
B13: 75110_05A11A (antibody, V domains shown)
VH: EVQLVESGGGLVKPGGSLTLSCAASGFTFSNTWMSWVRQAPGKGLEWVGRIKSKIDGGTTDYAAPVKGRFTISRDDSKNTLYLQMNSLKTEDTAVYYCTTSGTYSSGWGLFDYWGQGTLVTVSS
VL: DIQMTQSPSSLSASVGDRVTITCQASQDISNYLNWYQQKPGKAPKLLIYDTSNLEAGVPSRFSGSGSGTHFTLTISSLQPEDIATYYCQQYDNLPFTFGGGTRVEIK
notes: as for B4
B14: 75110_04G02A (antibody, V domains shown)
VH: not shown
VL: DIVMTQSPDSLAVSLGERATINCKSSQSVLYSSNNKNYLAWYQQKPGQPPKLLFYWASARESGVPDRFSGSGSGTDFTLTISSLQAEDVALYYCQQYFGSFPTFGQGTKLEIK
notes: as for B4

Key:
[1] = target: T1, human CD4 on cells (SKW3 cells; human PBMCs) (human, UniProt P01730 26-458); test: FACS binning on SKW3 cells after supernatant; competitor OKT4-A488; background 2163, max binding 8200
T1 construct: whole, on cells; The SKW3 CD4 knockout cells served as the negative cell line; also called hCD4

[2] = target: T1, human CD4 on cells (SKW3 cells; human …); test: FACS confirmation, supernatant on SKW3 WT cells, anti-hu Kappa FITC; background gMFI 2500
[3] = target: T1, human CD4 on cells (SKW3 cells; human …); test: FACS confirmation, supernatant on human PBMCs, anti-mFc 647
huCD4-HIS = target: T2, huCD4-HIS (human, UniProt P01730 26-390, limits assumed); test: ELISA binning, competitor Ibalizumab; 100 ng/mL huCD4-HIS, anti-HIS HRP detection; background 45, max binding 3000000
T2 construct: Named only in the head of the Ibalizumab ELISA binning column; Neither the source nor the construct limits are told in this stretch; not shown: HIS tag

[4] = target: T1, human CD4 on cells (SKW3 cells; human …); test: FACS confirmation, supernatant on human PBMCs, anti-mFc 647, CD4+ gate
[5] = target: T1, human CD4 on cells (SKW3 cells; human …); test: FACS primary screen, non-clonal supernatant; SKW3 vs SKW3 CD4 KO cells, anti-human Kappa FITC detection
[6] = target: T1, human CD4 on cells (SKW3 cells; human …); test: FACS binning on SKW3 cells after supernatant; competitor RPA-T4-PE-Dazzle 594; background 783, max binding 15000
[7] = target: T1, human CD4 on cells (SKW3 cells; human …); test: FACS binning on SKW3 cells after supernatant; competitor OKT4a, anti-hu A647 secondary; background 5000, max binding 35000
[8] = target: T1, human CD4 on cells (SKW3 cells; human …); test: FACS confirmation, supernatant on SKW3 WT cells, anti-mFc 647; background gMFI 3300
[9] = target: T1, human CD4 on cells (SKW3 cells; human …); test: FACS primary screen, non-clonal supernatant; SKW3 vs SKW3 CD4 KO cells, anti-mouse Fc 647 detection
[10] = target: T3, Rhesus macaque CD4-HIS (Acro Biosystems, Cat. CD4-C52H7) (rhesus macaque, UniProt P16003 26-390); test: BLI Octet, mAb on anti-mouse Fc sensor, rhesus CD4-HIS 25-100 nM
T3 construct: Bought reagent; also called Rhesus CD4; rhesus CD4-HIS; not shown: His tag
T3 sequence (P16003 26-390 limits assumed): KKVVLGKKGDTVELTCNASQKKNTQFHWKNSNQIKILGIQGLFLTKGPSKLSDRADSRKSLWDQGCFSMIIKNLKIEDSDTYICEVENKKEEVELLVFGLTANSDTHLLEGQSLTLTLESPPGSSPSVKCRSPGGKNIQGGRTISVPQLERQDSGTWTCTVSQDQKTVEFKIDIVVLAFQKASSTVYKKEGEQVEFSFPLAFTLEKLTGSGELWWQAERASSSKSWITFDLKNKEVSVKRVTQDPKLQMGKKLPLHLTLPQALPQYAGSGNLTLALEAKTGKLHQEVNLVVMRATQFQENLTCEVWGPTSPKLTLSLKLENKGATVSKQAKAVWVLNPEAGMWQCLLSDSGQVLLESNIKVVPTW

Binder | OKT4 A488 signal (FACS binning) [1] | gMFI, SKW3 WT anti-hu Kappa FITC [2] | PBMCs CD4+ percent bound of viable [3] | Ibalizumab ELISA binning signal (huCD4-HIS) | PBMCs CD4+ gate RL1 Binding [4] | SKW3 WT vs KO, anti-hKappa-FITC (ratio) [5] | RPA-T4-PE-Dazzle 594 signal (FACS binning) [6] | OKT4a anti-hu A647 signal (FACS binning) [7] | gMFI, SKW3 WT anti-mFc 647 [8] | SKW3 WT vs KO, anti-mFc-647 (ratio) [9] | binding result [10]
B1 | 9770 | 5230 gMFI | 31% | 869000 | 246000 | 1.6 ratio | 3090 | 36000 | 18600 gMFI | 2.8 ratio | –
B2 | 9090 | 4060 gMFI | 33% | 1.58e+06 | 179000 | 1.4 ratio | 6880 | 40100 | 13000 gMFI | 3.1 ratio | –
B3 | 12700 | 6010 gMFI | 29% | 2260 | 292000 | 1.9 ratio | 1660 | 14300 | 22000 gMFI | 4.8 ratio | –
B4 | – | – | – | – | – | – | – | – | – | – | no binding (tested: 100 nM)
B5 | – | – | – | – | – | – | – | – | – | – | no binding (tested: 100 nM)
B6 | 10400 | 6270 gMFI | 30% | 1.42e+06 | 225000 | 1.6 ratio | 2480 | 29900 | 23000 gMFI | 3 ratio | –
B7 | – | – | – | – | – | – | – | – | – | – | no binding (tested: 100 nM)
B8 | – | – | – | – | – | – | – | – | – | – | no binding (tested: 100 nM)
B9 | 9590 | 5720 gMFI | 35% | 1.7e+06 | 303000 | 1.6 ratio | 2510 | 38900 | 23100 gMFI | 3.1 ratio | –
B10 | – | – | – | – | – | – | – | – | – | – | no binding (tested: 100 nM)
B11 | – | – | – | – | – | – | – | – | – | – | no binding (tested: 100 nM)
B12 | – | – | – | – | – | – | – | – | – | – | no binding (tested: 100 nM)
B13 | – | – | – | – | – | – | – | – | – | – | no binding (tested: 100 nM)
B14 | – | – | – | – | – | – | – | – | – | – | no binding (tested: 100 nM)
